Patent publication US20100229252, “MEGANUCLEASE VARIANTS CLEAVING A DNA TARGET SEQUENCE FROM THE HUMAN HEMOGLOBIN BETA GENE AND USES THEREOF” (CELLECTIS, published 2010)

How the values were obtained:
Assay in all cases: cell_activity; CHO extrachromosomal LacZ assay
[1] = target: T1, I-CreI heterodimer HBB5.3_B2 / HBB5.4_A6 (Chlamydomonas reinhardtii, UniProt P05725;P05725 SEQ:1-167,SEQ:1-167)
T1 chain 1: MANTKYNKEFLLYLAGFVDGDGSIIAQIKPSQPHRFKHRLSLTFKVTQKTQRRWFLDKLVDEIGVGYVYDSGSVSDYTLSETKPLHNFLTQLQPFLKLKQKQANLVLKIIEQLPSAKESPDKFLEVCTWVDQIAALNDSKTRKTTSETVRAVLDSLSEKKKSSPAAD
T1 chain 2: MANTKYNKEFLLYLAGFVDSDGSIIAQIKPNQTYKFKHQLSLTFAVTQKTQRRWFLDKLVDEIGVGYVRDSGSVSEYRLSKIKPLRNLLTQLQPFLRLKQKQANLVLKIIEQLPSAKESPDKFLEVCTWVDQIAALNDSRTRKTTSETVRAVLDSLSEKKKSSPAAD
Experimental: (§1) Several I-CreI refined mutants able to efficiently cleave the HBB 5 target in yeast when forming heterodimers were identified in example 7. In order to validate and characterize the heterodimer displaying the maximal efficacy to cleave the HBB 5 sequence in CHO cells, the efficiency of combinations of mutants able to cut the HBB 5 target were tested using an extrachromosomal assay in mammalian cells.
(§2) CHO cells were transfected with Polyfect® transfection reagent according to the supplier's protocol (QIAGEN). 72 hours after transfection, culture medium was removed and 150 μl of lysis/revelation buffer for β-galactosidase liquid assay was added (typically 1 liter of buffer contained: 100 ml of lysis buffer (Tris-HCl 10 mM pH7.5, NaCl 150 mM, Triton X100 0.1%, BSA 0.1 mg/ml, protease inhibitors), 10 ml of Mg 100×buffer (MgCl₂ 100 mM, β-mercaptoethanol 35%), 110 ml ONPG 8 mg/ml and 780 ml of sodium phosphate 0.1M pH7.5). After incubation at 37° C., OD was measured at 420 nm. The entire process was performed on an automated Velocity11 BioCel platform. Per assay, 150 ng of target vector was cotransfected with 12.5 ng of each HBB5 mutant expression vector (12.5 ng of vector encoding the mutant cleaving the palindromic HBB5.3 target and 12.5 ng of vector encoding the mutant cleaving palindromic HBB5.4 target).

[2] = target: T2, I-CreI heterodimer HBB5.3_A2 / HBB5.4_A5 (Chlamydomonas reinhardtii, UniProt P05725;P05725 SEQ:1-167,SEQ:1-167)
T2 chain 1: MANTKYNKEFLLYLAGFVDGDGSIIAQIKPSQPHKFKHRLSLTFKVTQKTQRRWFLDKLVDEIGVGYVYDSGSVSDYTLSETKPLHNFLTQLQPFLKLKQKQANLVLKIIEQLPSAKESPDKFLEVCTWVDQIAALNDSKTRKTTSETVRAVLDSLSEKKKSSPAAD
T2 chain 2: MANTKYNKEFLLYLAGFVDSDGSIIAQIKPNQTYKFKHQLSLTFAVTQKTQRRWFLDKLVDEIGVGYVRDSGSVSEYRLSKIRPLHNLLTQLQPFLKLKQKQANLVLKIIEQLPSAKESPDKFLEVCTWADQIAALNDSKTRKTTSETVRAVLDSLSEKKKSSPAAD
Experimental: as §1, §2

[3] = target: T3, I-CreI heterodimer HBB5.3_B2 / HBB5.4_B1 (Chlamydomonas reinhardtii, UniProt P05725;P05725 SEQ:1-167,SEQ:1-167)
T3 chain 1: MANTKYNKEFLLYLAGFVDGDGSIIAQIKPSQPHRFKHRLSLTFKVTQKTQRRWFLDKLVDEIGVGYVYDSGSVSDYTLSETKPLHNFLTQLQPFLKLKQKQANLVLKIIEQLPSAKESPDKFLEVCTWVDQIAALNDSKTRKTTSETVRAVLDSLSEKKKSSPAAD
T3 chain 2: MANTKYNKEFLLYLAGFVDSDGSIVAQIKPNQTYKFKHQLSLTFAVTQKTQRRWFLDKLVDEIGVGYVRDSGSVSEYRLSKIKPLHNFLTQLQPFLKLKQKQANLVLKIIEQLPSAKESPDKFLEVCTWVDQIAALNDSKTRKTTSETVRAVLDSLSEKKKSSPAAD
Experimental: as §1, §2

[4] = target: T4, I-CreI heterodimer HBB5.3_A3 / HBB5.4_A5 (Chlamydomonas reinhardtii, UniProt P05725;P05725 SEQ:1-167,SEQ:1-167)
T4 chain 1: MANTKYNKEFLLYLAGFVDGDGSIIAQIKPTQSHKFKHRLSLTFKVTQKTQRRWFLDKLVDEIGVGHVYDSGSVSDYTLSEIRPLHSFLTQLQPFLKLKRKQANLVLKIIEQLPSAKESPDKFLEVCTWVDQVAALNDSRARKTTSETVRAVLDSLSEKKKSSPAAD
T4 chain 2: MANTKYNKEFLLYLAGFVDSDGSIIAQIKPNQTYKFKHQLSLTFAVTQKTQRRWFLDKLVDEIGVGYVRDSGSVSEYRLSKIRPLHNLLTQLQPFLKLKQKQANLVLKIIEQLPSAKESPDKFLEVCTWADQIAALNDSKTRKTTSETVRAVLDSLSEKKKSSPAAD
Experimental: as §1, §2

[5] = target: T5, I-CreI heterodimer HBB5.3_E3 / HBB5.4_A6 (Chlamydomonas reinhardtii, UniProt P05725;P05725 SEQ:1-167,SEQ:1-167)
T5 chain 1: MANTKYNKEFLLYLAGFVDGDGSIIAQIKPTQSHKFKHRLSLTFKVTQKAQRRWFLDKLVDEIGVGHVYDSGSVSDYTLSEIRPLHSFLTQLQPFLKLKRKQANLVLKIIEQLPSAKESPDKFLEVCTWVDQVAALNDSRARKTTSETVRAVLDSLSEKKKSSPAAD
T5 chain 2: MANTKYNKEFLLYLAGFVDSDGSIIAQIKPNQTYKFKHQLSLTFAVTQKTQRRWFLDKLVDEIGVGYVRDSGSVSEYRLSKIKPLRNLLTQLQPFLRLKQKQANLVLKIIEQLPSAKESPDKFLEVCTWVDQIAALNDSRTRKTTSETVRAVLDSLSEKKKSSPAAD
Experimental: as §1, §2

[6] = target: T6, I-CreI heterodimer HBB5.3_B2 / HBB5.4_A5 (Chlamydomonas reinhardtii, UniProt P05725;P05725 SEQ:1-167,SEQ:1-167)
T6 chain 1: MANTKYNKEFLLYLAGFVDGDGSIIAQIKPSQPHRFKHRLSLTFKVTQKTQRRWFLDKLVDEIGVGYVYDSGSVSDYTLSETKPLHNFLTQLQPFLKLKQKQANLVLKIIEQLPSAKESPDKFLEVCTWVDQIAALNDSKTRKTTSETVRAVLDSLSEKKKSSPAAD
T6 chain 2: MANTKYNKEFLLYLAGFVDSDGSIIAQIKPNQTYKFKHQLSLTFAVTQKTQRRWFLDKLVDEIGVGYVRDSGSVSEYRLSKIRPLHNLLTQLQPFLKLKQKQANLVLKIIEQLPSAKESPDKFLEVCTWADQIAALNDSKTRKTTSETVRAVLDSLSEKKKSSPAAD
Experimental: as §1, §2

[7] = target: T7, I-CreI heterodimer HBB5.3_A2 / HBB5.4_B1 (Chlamydomonas reinhardtii, UniProt P05725;P05725 SEQ:1-167,SEQ:1-167)
T7 chain 1: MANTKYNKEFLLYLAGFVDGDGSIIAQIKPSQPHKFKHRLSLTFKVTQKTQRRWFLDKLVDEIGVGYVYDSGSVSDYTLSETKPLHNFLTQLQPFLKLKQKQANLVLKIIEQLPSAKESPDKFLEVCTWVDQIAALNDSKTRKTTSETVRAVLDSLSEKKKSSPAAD
T7 chain 2: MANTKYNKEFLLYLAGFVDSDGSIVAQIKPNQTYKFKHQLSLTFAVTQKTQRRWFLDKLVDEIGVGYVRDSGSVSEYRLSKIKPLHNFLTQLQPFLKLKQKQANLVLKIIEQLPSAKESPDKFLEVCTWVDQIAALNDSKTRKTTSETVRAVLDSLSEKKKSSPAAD
Experimental: as §1, §2

[8] = target: T8, I-CreI heterodimer HBB5.3_A3 / HBB5.4_B1 (Chlamydomonas reinhardtii, UniProt P05725;P05725 SEQ:1-167,SEQ:1-167)
T8 chain 1: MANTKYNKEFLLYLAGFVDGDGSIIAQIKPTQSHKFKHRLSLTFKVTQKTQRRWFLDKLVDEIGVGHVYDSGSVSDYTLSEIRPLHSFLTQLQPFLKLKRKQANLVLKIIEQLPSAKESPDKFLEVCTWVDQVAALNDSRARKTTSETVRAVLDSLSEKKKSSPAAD
T8 chain 2: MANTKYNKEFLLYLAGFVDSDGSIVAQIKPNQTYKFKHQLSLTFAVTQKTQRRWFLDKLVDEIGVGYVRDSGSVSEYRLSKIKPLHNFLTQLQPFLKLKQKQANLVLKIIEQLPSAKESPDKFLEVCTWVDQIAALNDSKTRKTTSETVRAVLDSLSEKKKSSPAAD
Experimental: as §1, §2

[9] = target: T9, I-CreI heterodimer HBB5.3_E3 / HBB5.4_A5 (Chlamydomonas reinhardtii, UniProt P05725;P05725 SEQ:1-167,SEQ:1-167)
T9 chain 1: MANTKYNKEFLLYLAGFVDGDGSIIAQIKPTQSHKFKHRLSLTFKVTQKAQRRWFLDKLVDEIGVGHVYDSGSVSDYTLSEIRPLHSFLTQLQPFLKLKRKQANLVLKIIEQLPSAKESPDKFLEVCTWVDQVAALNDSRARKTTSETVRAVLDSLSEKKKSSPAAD
T9 chain 2: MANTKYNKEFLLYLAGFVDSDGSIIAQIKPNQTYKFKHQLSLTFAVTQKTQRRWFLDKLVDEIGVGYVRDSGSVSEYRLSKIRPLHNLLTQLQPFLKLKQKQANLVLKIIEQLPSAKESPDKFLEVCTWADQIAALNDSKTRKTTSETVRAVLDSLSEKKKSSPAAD
Experimental: as §1, §2

[10] = target: T10, I-CreI heterodimer HBB5.3_E3 / HBB5.4_B1 (Chlamydomonas reinhardtii, UniProt P05725;P05725 SEQ:1-167,SEQ:1-167)
T10 chain 1: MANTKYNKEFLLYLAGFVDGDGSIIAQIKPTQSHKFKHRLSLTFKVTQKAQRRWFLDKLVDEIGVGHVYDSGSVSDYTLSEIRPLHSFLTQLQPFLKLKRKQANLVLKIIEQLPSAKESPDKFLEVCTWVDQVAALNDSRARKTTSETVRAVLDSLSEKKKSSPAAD
T10 chain 2: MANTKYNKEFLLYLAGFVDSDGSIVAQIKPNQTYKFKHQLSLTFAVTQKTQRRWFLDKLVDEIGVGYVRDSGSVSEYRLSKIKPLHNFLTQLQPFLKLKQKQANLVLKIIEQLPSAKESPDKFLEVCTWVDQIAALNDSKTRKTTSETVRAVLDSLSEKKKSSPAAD
Experimental: as §1, §2

B1: HBB5 (dsDNA)
DNA 1: CAAGACAGGTTTAAGGAGACCA
DNA 2: TGGTCTCCTTAAACCTGTCTTG
activity [1]: 0.54 absorbance units | activity [2]: 0.78 absorbance units | activity [3]: 0.33 absorbance units | activity [4]: 0.86 absorbance units | activity [5]: 0.71 absorbance units | activity [6]: 0.5 absorbance units | activity [7]: 0.42 absorbance units | activity [8]: 0.2 absorbance units | activity [9]: 0.46 absorbance units | activity [10]: 0.37 absorbance units
